The assay deals with T1, human receptor activator of nuclear factor-κB (RANK) (human, UniProt Q9Y6Q6 30-212).
T1 sequence (looked up): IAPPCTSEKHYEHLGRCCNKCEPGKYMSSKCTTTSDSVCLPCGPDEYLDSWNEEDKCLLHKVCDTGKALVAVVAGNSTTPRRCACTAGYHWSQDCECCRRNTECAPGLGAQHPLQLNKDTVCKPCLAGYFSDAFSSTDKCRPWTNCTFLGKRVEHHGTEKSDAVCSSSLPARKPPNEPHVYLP
The experiment in a line: SPR. Background: SPR reads the build-up and loss of mass on a sensor chip optically.

B1: human receptor activator of nuclear factor-κB ligand (RANKL) (ligand, UniProt O14788 140-317, looked up)
chain: IRAEKAMVDGSWLDLAKRSKLEAQPFAHLTINATDIPSGSHKVSLSSWYHDRGWAKISNMTFSNGKLIVNQDGFYYLYANICFRHHETSGDLATEYLQLMVYVTKTSIKIPSSHTLMKGGSTKYWSGNSEFHFYSINVGGFFKLRSGEEISIEVSNPSLLDPDQDATYFGAFKVRDID
As to B1, the binding result is “binds”.

The values above are taken from publication PMC8484898 (Bioactive Materials, 2021).
